From paper PMC9352680, “A comprehensive thermodynamic model for RNA binding by the Saccharomyces cerevisiae Pumilio protein PUF4” come the findings set out here.

Residue numbers refer to the chain shown, from its start. Names and notes keep the numbering of the source.

Sequences and labels used below:
B1: Id_ii_S2_P4E.3_K4.2_C4.2_[T-1G]_H4.2_A4.1_F4.1_T4.2_[G10A]_[T11A] (ssRNA)
RNA: UUUGAUUAAUAUGAUAUCGUUCUUUCUCGUAUAUAUUAAAUUCUUUCUCGAUAUCAUAUUAAUCUUU
B2: Id_ii_S2_P4E.3_K4.2_C4.2_[T-1A]_H4.2_A4.1_F4.1_T4.2_[G10A]_[T11C] (ssRNA)
RNA: B1 RNA with G29A, A40C
B3: Id_ii_S2_P4E.4_K4.3_C4.2_[C-2T]_[T-1C]_H4.3_A4.1_F4.1_T4.2_[G10C] (ssRNA)
RNA: B1 RNA with C28U, G29C, U30A, A31C, U32A, A33C, A39C, A40U
B4: Id_ii_S2_P4E.3_K4.2_C4.2_[T-1A]_H4.2_A4.1_F4.1_T4.2_[G10C]_[T11C] (ssRNA)
RNA: B1 RNA with G29A, A39C, A40C
B5: Id_ii_S2_P4E.3_K4.2_C4.2_[T-1A]_H4.2_A4.1_F4.1_T4.2_[G10A]_[T11G] (ssRNA)
RNA: B1 RNA with G29A, A40G
B6: Id_ii_S2_P4E.3_K4.2_C4.2_[T-1C]_H4.2_A4.1_F4.1_T4.2_[G10T] (ssRNA)
RNA: B1 RNA with G29C, A39U, A40U
B7: Id_ii_S2_P4E.3_K4.2_C4.2_[T-1A]_H4.2_A4.1_F4.1_T4.2 (ssRNA)
RNA: B1 RNA with G29A, A39G, A40U
B8: Id_ii_S2_P4E.3_K4.2_C4.2_[T-1C]_H4.2_A4.1_F4.1_T4.2_[G10C]_[T11G] (ssRNA)
RNA: B1 RNA with G29C, A39C, A40G
B9: Id_ii_S2_P4E.3_K4.2_C4.2_[T-1C]_H4.2_A4.1_F4.1_T4.2_[G10A] (ssRNA)
RNA: B1 RNA with G29C, A40U
B10: Id_ii_S2_P4E.3_K4.2_C4.2_H4.2_A4.1_F4.1_T4.2_[G10T]_[T11C] (ssRNA)
RNA: B1 RNA with G29U, A39U, A40C
B11: If_S2_P4E.3_K4.2_C4.2_H4.2_A4.1_F4.1_T4.2 (ssRNA)
RNA: B1 RNA with G29U, A39G, A40U
B12: Id_ii_S2_P4E.3_K4.2_C4.2_[T-1A]_H4.2_A4.1_F4.1_T4.2_[G10A]_[T11A] (ssRNA)
RNA: B1 RNA with G29A
B13: Id_ii_S2_P4E.4_K4.3_C4.2_[C-2G]_[T-1C]_H4.3_A4.1_F4.1_T4.2 (ssRNA)
RNA: B1 RNA with C28G, G29C, U30A, A31C, U32A, A33C, A39G, A40U
B14: Id_ii_S2_P4E.3_K4.2_C4.2_H4.2_A4.1_F4.1_T4.2_[G10C]_[T11G] (ssRNA)
RNA: B1 RNA with G29U, A39C, A40G
B15: Id_ii_S2_P4E.3_K4.2_C4.2_H4.2_A4.1_F4.1_T4.2_[G10C]_[T11A] (ssRNA)
RNA: B1 RNA with G29U, A39C
B16: Id_ii_S2_P4E.3_K4.2_C4.2_H4.2_A4.1_F4.1_T4.2_[G10T] (ssRNA)
RNA: B1 RNA with G29U, A39U, A40U
B17: Id_ii_S2_P4E.3_K4.2_C4.2_[T-1C]_H4.2_A4.1_F4.1_T4.2_[G10C]_[T11A] (ssRNA)
RNA: B1 RNA with G29C, A39C
B18: Id_ii_S2_P4E.3_K4.2_C4.2_H4.2_A4.1_F4.1_T4.2_[G10A] (ssRNA)
RNA: B1 RNA with G29U, A40U
B19: Id_ii_S2_P4E.3_K4.2_C4.2_[T-1A]_H4.2_A4.1_F4.1_T4.2_[T11G] (ssRNA)
RNA: B1 RNA with G29A, A39G, A40G
B20: Id_ii_S2_P4E.3_K4.2_C4.2_[T-1C]_H4.2_A4.1_F4.1_T4.2_[G10T]_[T11A] (ssRNA)
RNA: B1 RNA with G29C, A39U
B21: Id_ii_S2_P4E.3_K4.2_C4.2_H4.2_A4.1_F4.1_T4.2_[G10A]_[T11C] (ssRNA)
RNA: B1 RNA with G29U, A40C
B22: Id_ii_S2_P4E.4_K4.3_C4.2_[C-2G]_[T-1C]_H4.3_A4.1_F4.1_T4.2_[G10A]_[T11A] (ssRNA)
RNA: B1 RNA with C28G, G29C, U30A, A31C, U32A, A33C
B23: Id_ii_S2_P4E.3_K4.2_C4.2_[T-1C]_H4.2_A4.1_F4.1_T4.2_[G10T]_[T11G] (ssRNA)
RNA: B1 RNA with G29C, A39U, A40G
B24: Id_ii_S2_P4E.3_K4.2_C4.2_H4.2_A4.1_F4.1_T4.2_[T11C] (ssRNA)
RNA: B1 RNA with G29U, A39G, A40C
B25: Id_ii_S2_P4E.3_K4.2_C4.2_[T-1A]_H4.2_A4.1_F4.1_T4.2_[G10C]_[T11G] (ssRNA)
RNA: B1 RNA with G29A, A39C, A40G
B26: Id_ii_S2_P4E.3_K4.2_C4.2_[T-1C]_H4.2_A4.1_F4.1_T4.2_[G10A]_[T11A] (ssRNA)
RNA: B1 RNA with G29C
B27: Id_ii_S2_P4E.3_K4.2_C4.2_[T-1A]_H4.2_A4.1_F4.1_T4.2_[G10C]_[T11A] (ssRNA)
RNA: B1 RNA with G29A, A39C
B28: Id_ii_S2_P4E.4_K4.3_C4.2_[C-2G]_H4.3_A4.1_F4.1_T4.2_[G10C]_[T11C] (ssRNA)
RNA: B1 RNA with C28G, G29U, U30A, A31C, U32A, A33C, A39C, A40C
B29: Id_ii_S2_P4E.3_K4.2_C4.2_[T-1A]_H4.2_A4.1_F4.1_T4.2_[G10A] (ssRNA)
RNA: B1 RNA with G29A, A40U
B30: Id_ii_S2_P4E.4_K4.3_C4.2_[C-2T]_[T-1C]_H4.3_A4.1_F4.1_T4.2_[G10C]_[T11C] (ssRNA)
RNA: B1 RNA with C28U, G29C, U30A, A31C, U32A, A33C, A39C, A40C
B31: Id_ii_S2_P4E.4_K4.3_C4.2_[C-2G]_H4.3_A4.1_F4.1_T4.2_[G10T]_[T11A] (ssRNA)
RNA: B1 RNA with C28G, G29U, U30A, A31C, U32A, A33C, A39U
B32: Id_ii_S2_P4E.3_K4.2_C4.2_[T-1A]_H4.2_A4.1_F4.1_T4.2_[G10T] (ssRNA)
RNA: B1 RNA with G29A, A39U, A40U
B33: Id_ii_S2_P4E.4_K4.3_C4.2_[C-2G]_H4.3_A4.1_F4.1_T4.2_[G10A]_[T11A] (ssRNA)
RNA: B1 RNA with C28G, G29U, U30A, A31C, U32A, A33C
B34: Id_ii_S2_P4E.4_K4.3_C4.2_[C-2G]_H4.3_A4.1_F4.1_T4.2_[G10A] (ssRNA)
RNA: B1 RNA with C28G, G29U, U30A, A31C, U32A, A33C, A40U
B35: Id_ii_S2_P4E.3_K4.2_C4.2_[T-1A]_H4.2_A4.1_F4.1_T4.2_[G10C] (ssRNA)
RNA: B1 RNA with G29A, A39C, A40U
B36: Id_ii_S2_P4E.4_K4.3_C4.2_[C-2G]_H4.3_A4.1_F4.1_T4.2_[G10A]_[T11C] (ssRNA)
RNA: B1 RNA with C28G, G29U, U30A, A31C, U32A, A33C, A40C

This data set concerns the target T1, PUF4 RNA-binding domain (Saccharomyces cerevisiae, UniProt P25339 537-888).
T1 sequence: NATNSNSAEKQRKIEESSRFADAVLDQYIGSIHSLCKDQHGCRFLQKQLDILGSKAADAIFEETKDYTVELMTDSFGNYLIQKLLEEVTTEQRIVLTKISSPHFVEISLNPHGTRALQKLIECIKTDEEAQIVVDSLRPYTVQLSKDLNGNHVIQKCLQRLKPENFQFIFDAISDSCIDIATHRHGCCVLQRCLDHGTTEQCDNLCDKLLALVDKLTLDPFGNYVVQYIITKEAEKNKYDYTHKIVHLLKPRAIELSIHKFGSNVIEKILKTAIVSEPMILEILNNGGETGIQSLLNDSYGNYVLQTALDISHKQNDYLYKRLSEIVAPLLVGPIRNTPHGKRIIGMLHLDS
As to the kind of experiment: Mg; RNA-MaP; 20 mM Na-HEPES pH 7.4, 30 mM KOAc, 0.75 mM MgCl2, 0.1% Tween-20, 5% glycerol, 0.1 mg/mL BSA, 2 mM DTT; 25 C; 0.0125-409.6 nM protein. To be noted: tags: N-His6-TEV cleaved; C-SNAP kept, Cy3B-labelled; label: tethered on chip by stalled RNA polymerase.
For the molecule UCUCUUUGUUUUAUUUUCUCUU (ssRNA) [Ib_S1_P5E.1_K5.1_C5.1_H5.1_[A4T]_A5.1_F5.1_[A10T]_T5.1], the Kd is 864 nM.

B1 came in with a Kd of 20.5 nM. The result for B2 reads 17.8 nM; that for B3, > 2300 nM; that for B4, 10.3 nM. The value for B5 was 360 nM; that for B6 was 3.61 nM; that for B7 was 8.89 nM. The value for B8 was 9.56 nM; that for B9 was 7.32 nM.

Consider B10, for which the affinity, expressed as Kd, was 4.61 nM. As to B11, binding was characterised by a dissociation constant (Kd) of 10.4 nM. The molecule B12 showed a Kd of 37.6 nM.

The molecule B13 yielded a Kd of 448 nM.

With B14, the Kd came to 18.8 nM. The result for B15 reads 8.35 nM. Take B16: the affinity, expressed as Kd, was 3.81 nM. The value for B17 was 9.95 nM; that for B18 was 9.82 nM. The result for B19 reads 46.4 nM.

The molecule B20 had a Kd of 17 nM. The result for B21 reads 14 nM; that for B22, 23.6 nM; that for B23, 5.86 nM. The result for B24 reads 7.25 nM; that for B25, 32.8 nM; that for B26, 12.2 nM.

In the case of B27, the affinity, expressed as Kd, was 16.3 nM.

Consider B28, for which binding was characterised by a dissociation constant (Kd) of 0.865 nM. The result for B29 reads 10.1 nM; that for B30, > 2300 nM; that for B31, 0.496 nM. The result for B32 reads 8.24 nM; that for B33, 0.354 nM. The value for B34 was 0.412 nM; that for B35 was 7.44 nM; that for B36 was 0.5 nM.

UCUCUUUGUCUUAUUUUCUCUU (ssRNA) [Ib_S1_P5E.1_K5.1_C5.1_H5.1_[A4C]_A5.1_F5.1_[A10T]_T5.1] gave a Kd of 775 nM.

Consider UCUCUUUGUUUUAUUCUCUCUU (ssRNA) [Ib_S1_P5E.1_K5.1_C5.1_H5.1_[A4T]_A5.1_F5.1_[A10C]_T5.1], for which the Kd is 899 nM. The value for UCUCUUUGCAUUAUUAUCUCUU (ssRNA) [Ia_S1_P5E.1_K5.1_C5.1_H5.1_[T3C]_A5.1_F5.1_T5.1] was 1250 nM; that for UCUCUUUGUCUUAUUCUCUCUU (ssRNA) [Ib_S1_P5E.1_K5.1_C5.1_H5.1_[A4C]_A5.1_F5.1_[A10C]_T5.1] was 1350 nM.

As usually defined, the Kd is the constant that tells how readily two partners part at equilibrium. High values mean a looser complex, low ones a tighter complex.
